# B1: 7-H10 anti-human RYK mAb (antibody, V domains shown)
# VH: QVQLQQSGAELAKPGTSVKLSCKASGYIFTNYDINWVRQRPEQGLEWIGWIFPGDDSTKYNEKFEGKAALTTDKSSNTAYIQLSRLTSGDSAVYFCTRYHYYGSSLGWSFDVWGAGTSVTVSS
# VL: EIVLTQSPALMAASPGEKVTITCSVSSRISSINLHWYQQKSETSPKTWIYGTSNLASGVPSRFSGSGSGTSYSLTISNMEAEDAATYYCQQWSSYPYTFGGGTKVEIK
# notes: Mouse hybridoma mAb, kappa light chain, detected with anti-mouse IgG; also called mAb 7-H10
# B2: recombinant human RYK protein used in KinExA (receptor, UniProt P34925 46-227, looked up)
# chain: AAPAPRPPELQSASAGPSVSLYLSEDEVRRLIGLDAELYYVRNDLISHYALSFSLLVPSETNFLHFTWHAKSKVEYKLGFQVDNVLAMDMPQVNISVQGEVPRTLSVFRVELSCTGKVDSEVMILMQLNLTVNSSKNFTVLNFKRRKMCYKKLEEVKTSALDKNTSRTIYDPVHAAPTTSTR
# notes: Legend prints 'RYK2'; also called recombinant human RYK2 protein
# Legend:
# [1] = target: B2; test: KinExA 3200, soluble RYK competitor against RYK-coated particles
# Protocol: (§1) Analysis was performed using a KinExA 3200 instrument. FIG. 7A: The proportion of anti-human RYK mAb bound to particles coated with RYK protein (y-axis) in the presence of increasing molar (M) concentration of soluble RYK competitor (x-axis) is shown for 2-D11 mAb (upper left panel) and 7-H10 mAb (lower left panel).
# [2] = target: T1, recombinant extracellular protein of mouse RYK (mouse, UniProt Q01887 35-211); test: immunoblot of recombinant extracellular protein on nylon membrane
# T1 construct: also called mRYK; not shown: rabbit IgG tag for purification
# Protocol: (§2) FIG. 4A illustrates experiments in which binding of 2-D11, 7-H10, 3-C12, 11-E9, 6-B5, 6-D10 and sheep anti-RYK mAb was assessed using recombinant human RYK proteins (SEQ ID NO:129) in which one amino acid that differs between human and mouse RYK within the extracellular domain was replaced with the corresponding amino acid of mouse RYK. Each recombinant protein was transferred onto nylon membrane, probed with the indicated anti-RYK mAb or Sheep anti-RYK Ab, and detected with an anti-mouse IgG or donkey-anti-sheep antibody conjugated with horse radish peroxidase. […]
# The anti-human RYK mAbs, 2-D11 and 7-H10, appear specific for an amino terminal epitope of human Ryk (residues 46-57) that are distinct from those in mouse Ryk (FIG. 3); these mAbs also bind mutant forms of Ryk containing amino acid substitutions in human Ryk at positions that differ from that of the highly homologous mouse Ryk to assimilate mouse Ryk at the site of substitution, with amino acid sequence shown in FIG. 3, as shown by immunoblot analyses of recombinant extracellular proteins of human or mouse or each of the various mutant forms of human Ryk (FIG. 4) For this, the binding of 2-D11, 7-H10, or Sheep anti-RYK mAb was assessed using recombinant extracellular RYK proteins as specified in the Key. […]
# [3] = target: T1, recombinant extracellular protein of …; test: dot blot of recombinant RYK proteins (rabbit IgG tag) on nylon membrane, probed with the mAb, anti-mouse IgG-HRP
# Protocol: as §2, with “FIGS. 4A-4B illustrate the […] of amino acids required for binding of anti-human RYK mAb to the extracellular domain of human RYK (SEQ ID NO:129). FIG.” for “FIG.”, “peroxidase. Rabbit anti-IgG blotting is a positive for protein blotting and detection as recombinant proteins have a rabbit IgG tag for purification. Alignment of the protein sequences of the extracellular domain of human and mouse RYK are shown in the lower panel and the boxed amino acids indicate the amino acids changes made for each recombinant protein.” for “peroxidase.”
# 7-H10 anti-human RYK mAb = target: B1; test: KinExA 3200: free mAb captured on RYK-coated particles in the presence of rising molar concentration of soluble RYK
# Protocol: as §1
binder,measurement,setting,value
B1,Kd,[1],0.0106 µM
same,binding result,[2],no binding
"3C12 (antibody, V domains shown, anti-human RYK mAb; also called 3C12 mAb) VH: QVQLKESGPGLVAPSQSLSITCTVSGFSLNGYGVNWVRQPPGKDLEWLGMIWGDGITEFNSALKSRLSISKDNSKSQVFLKMNSLQTEDTARYYCVRQGSGVWFAYWGQGTLVS VL: DVLVTQTPLSLPVSLGDQASISCRSSQTIVHSNGNTYLEWYLQKPGQSPKLLIYKVSNRFSGVPDRFSGSGSGTDFTLKISRVEAEDLGVYYCFQGSHVPYTFGGGTKLEIK",binding result,[3],no binding
"11E9 (antibody, V domains shown, anti-human RYK mAb; also called 11E9 mAb) VH: QVQLKESGPGLVAPSQSLSITCTVSGFSLNGYGVNWVRQPPGKDLEWLGMIWGDGITEFNSALKSRLSISKDNSKSQVFLKMNSLQTEDTARYYCVRQGSGVWFAYWGQGTLS VL: DVLVTQTPLSLPVSLGDQASISCRSSQTIVHSNGNTYLEWYLQKPGQSPKLLIYKVSNRFCGVPDRFSGSGSGTDFTLKISRVEAEDLGVYYCFQGSHVPYTFGGGTKLEIK",binding result,[3],no binding
B2,IC50 (read off the curve),7-H10 anti-human RYK mAb,~0.02 µM

# Reference: patent US20250027945A1 (University of California, published 2025)
